These results are taken from publication PMC8442604.

For assay [1], the target named is SARS-CoV-2 RBD protein (321–591) (SARS-CoV-2) (UniProt P0DTC2).
Assay [2] has the same target. Put plainly: SPR. (SPR reads the build-up and loss of mass on a sensor chip optically.)

As usually defined, the Kd is the constant that tells how readily two partners part at equilibrium. A low value points to a tighter complex. As to P2B-2F6 (antibody), in assay [1], the other was found to be 37.5 µg/mL. The Kd in assay [2] is 0.81 nM.
